Source: publication PMC9325545, “Structure and Mutation of the Native Amine Dehydrogenase MATOUAmDH2” (Chembiochem, 2022)

Target: MATOUAmDH2 (native amine dehydrogenase from the Marine Atlas of Tara Oceans Unigenes, MATOUv1)
Experiment: crystal structure; complex with NADP+; space group P2(1)2(1)2(1); four molecules in the asymmetric unit, two dimers (A/D and B/C)

“MATOUAmDH2 (native amine dehydrogenase from the Marine Atlas of Tara Oceans Unigenes, MATOUv1) (enzyme)” gave a stoichiometry N of 2.
